In patent US12404345B2, “Humanized antibodies against iRHOM2” (SCIRHOM GMBH, priority 2021, dated 2025):

Target: T1, endogenous iRhom2 on THP-1 cells (Homo sapiens, UniProt Q6PJF5)
T1 construct: THP-1 cells, a human monocytic cell line endogenously expressing both iRhom2 and iRhom1; host or cells: THP-1
T1 sequence (Q6PJF5 1-856): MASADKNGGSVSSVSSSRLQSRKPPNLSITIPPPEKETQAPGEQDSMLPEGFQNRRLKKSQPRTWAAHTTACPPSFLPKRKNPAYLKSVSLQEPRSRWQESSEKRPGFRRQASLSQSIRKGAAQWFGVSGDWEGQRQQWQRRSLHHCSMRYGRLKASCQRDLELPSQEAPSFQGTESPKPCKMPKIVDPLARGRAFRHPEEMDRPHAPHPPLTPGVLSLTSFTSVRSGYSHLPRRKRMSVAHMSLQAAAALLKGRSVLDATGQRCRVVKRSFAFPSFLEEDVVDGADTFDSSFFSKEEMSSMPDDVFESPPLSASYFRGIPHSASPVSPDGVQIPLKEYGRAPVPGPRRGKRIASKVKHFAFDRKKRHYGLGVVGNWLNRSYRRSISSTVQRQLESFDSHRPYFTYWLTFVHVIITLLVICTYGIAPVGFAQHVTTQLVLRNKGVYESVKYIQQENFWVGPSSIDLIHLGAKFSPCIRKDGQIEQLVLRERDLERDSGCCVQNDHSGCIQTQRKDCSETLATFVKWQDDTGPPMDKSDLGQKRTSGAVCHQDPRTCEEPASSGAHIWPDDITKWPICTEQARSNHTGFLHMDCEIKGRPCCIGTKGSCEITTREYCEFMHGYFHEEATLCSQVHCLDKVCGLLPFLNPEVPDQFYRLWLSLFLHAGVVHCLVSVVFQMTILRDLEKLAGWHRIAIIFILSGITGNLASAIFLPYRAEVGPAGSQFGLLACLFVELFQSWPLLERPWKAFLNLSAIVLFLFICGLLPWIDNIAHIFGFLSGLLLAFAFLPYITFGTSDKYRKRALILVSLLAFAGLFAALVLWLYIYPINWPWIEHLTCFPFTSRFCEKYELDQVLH
Test: FACS binding to THP-1 cells endogenously expressing iRhom2 and iRhom1
Conditions: antibody at 3 μg/ml
Description: In this study, binding specificity analyses of the humanized antibody 42-B-02 as a representative example of the antibodies of the invention in cell lines endogenously expressing iRhom2 were performed. The studies were conducted on RPMI-8226 cells, a human B lymphocytic cell line endogenously expressing iRhom2 but being endogenously negative for iRhom1, on THP-1 cells, a human monocytic cell line endogenously expressing both iRhom2 and iRhom1 and on RH-30 cells, a human […] cell line endogenously negative for iRhom2 but endogenously expressing iRhom1.
In brief, human RPMI-8226 cells (Deutsche Sammlung von Mikroorganismen und Zellkulturen, Germany), THP-1 cells (American Type Culture Collection, USA) and RH-30 cells (Deutsche Sammlung von Mikroorganismen und Zellkulturen, Germany) were harvested with 10 mM EDTA in PBS, washed and resuspended in FACS buffer (PBS, 3% FBS, 0.05% sodium azide), and seeded in Nunc U-bottom 96-well plates (Thermo Fisher Scientific, USA) at approximately 2×10^5 cells per well. In order to pellet cells and remove supernatants, the plates were centrifuged at 1,500 rpm and 4° C. for 3 minutes. […] Finally, cells were resuspended in 150 μl per well of FACS buffer and analyzed using a BD Accuri™ C6 Plus flow cytometer (Becton Dickinson, Germany).

binding to THP-1 cells (endogenously expressing iRhom2 and iRhom1): strong binding
B1: 42-B-02: humanized antibody binding human iRhom2; HCVD SEQ ID NO 33, LCVD SEQ ID NO 37 (antibody, V domains shown)
VH: QVTLRESGPALVKPTQTLTLTCTFSGFSLSTFGRGVGWIRQPPGKALEWLAHIWWDDEKYYNSALKSRLTISKDTSKNQVVLTITNMDPVDTATYYCARIQNYGSNYWYFDVWGQGTLVTVSS
VL: AIQLTQSPSSLSASVGDRVTITCRASSRISYMFWYQQKPGKAPKVLIYDTSNLASGVPSRFSGSGSGTDYTLTISSLQPEDFATYYCQQWNSYPLTFGQGTKLEIK
modifications: antibody sequences
